Test results reported in PMC8992277 (ACS Omega, 2022).

Target: T1, Human neuroglobin (human, UniProt Q9NPG2 1-151)
T1 sequence (looked up): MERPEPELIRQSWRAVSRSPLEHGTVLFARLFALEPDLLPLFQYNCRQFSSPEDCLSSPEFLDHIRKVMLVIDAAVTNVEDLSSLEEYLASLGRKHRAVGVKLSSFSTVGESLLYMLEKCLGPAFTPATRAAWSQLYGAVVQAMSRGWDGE
Test: ITC

Ka: 5300 M⁻¹
Kd: 189 µM
dH, fold of that of WT hCyt c binding to Ngb: ~6 fold
B1: Human cytochrome c I81N variant (natural protein)
chain: not shown
modifications: heme c covalently linked to the peptide chain via two thioether bonds through the CXXCH motif
